Reference: patent US20260109758A1 (BIOSION, published 2026)

B1: BSI-502-007 (bispecific antibody, human IgG1, kappa)
heavy: QVQLVQSGAEVKKPGASVKVSCKASGYTFTTYWMHWVRQAPGQGLEWMGVIDPSDSDTTYNQKFKGRVTMTRDTSTSTVYMELSSLRSEDTAVYYCTRSLDGYYDYWGQGTLVTVSSGGGGSGGGGSGGGGSGGGGSDIQMTQSPSSLSASVGDRVTITCRPTENIYSYLAWYQQKPGKAPKLLIYFARTLAEGVPSRFSGSGSGTDFTLTISSLQPEDFATYYCQHHYGTPWTFGGGTKVEIKGGGGSGGGGSEVQLVESGGGLVQPGGSLRLSCAASGFTFSTYGMSWVRQAPGKGLVWVATINSNGGSTSYPDSVKGRFTISRDNAKNTLYLQMNSLRAEDTAVYYCARFFRFRNAMDYWGQGTLVTVSSASTKGPSVFPLAPSSKSTSGGTAALGCLVKDYFPEPVTVSWNSGALTSGVHTFPAVLQSSGLYSLSSVVTVPSSSLGTQTYICNVNHKPSNTKVDKKVEPKSCDKTHTCPPCPAPEAQGGPSVFLFPPKPKDTLYITREPEVTCVVVDVSHEDPEVKFNWYVDGVEVHNAKTKPREEQYNSTYRVVSVLTVLHQDWLNGKEYKCQVSNKALPAPIEKTISKAKGQPREPQVYTLPPSRDELTKNQVSLTCLVKGFYPSDIAVEWESNGQPENNYKTTPPVLDSDGSFFLYSKLTVDKSRWQQGNVFSCSVMHEALHNHYTQKSLSLSPG
light: DIQMTQSPSSLSASVGDRVTITCRTSENIYSYLAWYQQKPGKAPKFLVYNAKTLAEGVPSRFSGSGSGTDFTLTISSLQPEDFATYYCQHYYGPPTWTFGQGTKVEIKRTVAAPSVFIFPPSDEQLKSGTASVVCLLNNFYPREAKVQWKVDNALQSGNSQESVTEQDSKDSTYSLSSTLTLSKADYEKHKVYACEVTHQGLSSPVTKSFNRGEC
notes: huC2C1A1A1-V15 IgG with an anti-TSLP scFv (VH-VL) at the N-terminus of the heavy chain; AQQ and YTE already stand in the entry
B2: BSI-502-008 (bispecific antibody, human IgG1, kappa)
heavy: DIQMTQSPSSLSASVGDRVTITCRPTENIYSYLAWYQQKPGKAPKLLIYFARTLAEGVPSRFSGSGSGTDFTLTISSLQPEDFATYYCQHHYGTPWTFGGGTKVEIKGGGGSGGGGSGGGGSGGGGSQVQLVQSGAEVKKPGASVKVSCKASGYTFTTYWMHWVRQAPGQGLEWMGVIDPSDSDTTYNQKFKGRVTMTRDTSTSTVYMELSSLRSEDTAVYYCTRSLDGYYDYWGQGTLVTVSSGGGGSGGGGSEVQLVESGGGLVQPGGSLRLSCAASGFTFSTYGMSWVRQAPGKGLVWVATINSNGGSTSYPDSVKGRFTISRDNAKNTLYLQMNSLRAEDTAVYYCARFFRFRNAMDYWGQGTLVTVSSASTKGPSVFPLAPSSKSTSGGTAALGCLVKDYFPEPVTVSWNSGALTSGVHTFPAVLQSSGLYSLSSVVTVPSSSLGTQTYICNVNHKPSNTKVDKKVEPKSCDKTHTCPPCPAPEAQGGPSVFLFPPKPKDTLYITREPEVTCVVVDVSHEDPEVKFNWYVDGVEVHNAKTKPREEQYNSTYRVVSVLTVLHQDWLNGKEYKCQVSNKALPAPIEKTISKAKGQPREPQVYTLPPSRDELTKNQVSLTCLVKGFYPSDIAVEWESNGQPENNYKTTPPVLDSDGSFFLYSKLTVDKSRWQQGNVFSCSVMHEALHNHYTQKSLSLSPG
light: B1 light
notes: huC2C1A1A1-V15 IgG with an anti-TSLP scFv (VL-VH) at the N-terminus of the heavy chain; AQQ and YTE already stand in the entry

Tests used:
[1] = molecular target: T1, human IL4Rα expressed on 293F-IL4Rα cell surface (human, UniProt P24394 26-825); experiment: cell-based blocking FACS on 293F-IL4Rα cells; blocked ligand biotin human IL4
T1 construct: whole, on cells; also called human IL4Rα-expressing cells; cell surface IL4R

[2] = molecular target: T2, recombinant human IL4Rα-his (human, UniProt P24394 26-231, limits assumed, biotin-labeled in the capture ELISA); experiment: competitive ELISA: coated human IL4Rα-his, antibody titrated; blocked ligand biotin human IL4
T2 construct: In-house made; not shown: His tag at the C-terminus

[3] = molecular target: T3, biotin-labeled human TSLP-Fc (human, biotin-labeled); experiment: cell-based blocking FACS: antibody pre-mixed with biotin human TSLP-Fc; blocked binding to cell-surface TSLPR/IL7Ra on HEK293T-TSLPR/IL7R/STAT5-Luc 5C5 cells
T3 construct: also called TSLP-Fc protein; TSLP-Fc-biotin

Binder	IC50 [1] [nM]	IC50 [2] [nM]	IC50 [3] [nM]
B1	0.199	0.212	1.12
B2	0.169	0.236	1.13
